This note sets out measurements from US20130039923A1 (Novo Nordisk, published 2013).

Ends that are not written are not given here.

In assay [1] the target is T1, recombinant human interleukin-20 (human, UniProt Q9NYY1 25-176).
T1 sequence: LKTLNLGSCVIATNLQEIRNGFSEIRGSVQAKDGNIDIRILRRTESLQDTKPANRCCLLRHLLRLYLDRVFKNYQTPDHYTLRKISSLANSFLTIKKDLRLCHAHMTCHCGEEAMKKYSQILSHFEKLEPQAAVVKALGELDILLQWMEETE
Put plainly: cell-based or functional assay.

In another assay the target is T2, cynomolgus IL20 (cynomolgus monkey, UniProt Q9NYY1 25-176 (human entry)).
T2 chain: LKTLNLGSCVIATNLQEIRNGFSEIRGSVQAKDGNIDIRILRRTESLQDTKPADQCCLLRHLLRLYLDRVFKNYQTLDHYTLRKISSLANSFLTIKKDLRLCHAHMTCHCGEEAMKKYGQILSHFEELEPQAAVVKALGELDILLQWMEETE
The assay can be described thus: cell-based or functional assay.

Another assay concerns the target T3, murine IL20 (mouse, UniProt Q9JKV9 25-176).
T3 sequence: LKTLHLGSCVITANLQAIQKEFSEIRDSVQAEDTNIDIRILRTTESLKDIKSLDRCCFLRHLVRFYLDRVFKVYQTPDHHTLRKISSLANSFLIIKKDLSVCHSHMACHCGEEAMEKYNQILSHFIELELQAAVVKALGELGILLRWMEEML
Put plainly: cell-based or functional assay.

The target in assay [2] is T1, recombinant human interleukin-20. Put plainly: cell-based or functional assay. The source holds these as a separate data set.
For assay [3] the target is unchanged. The assay can be described thus: SPR (Biacore 3000/T100), antibody amine-coupled on CM5, recombinant hIL20 injected 3.125-100 nM, 1:1 Langmuir, 25 C; antibody from hybridoma. A general note: In SPR one partner is held on a chip, and binding of the other changes the refractive index at the surface.
Description: Affinity studies were performed using a direct binding procedure, with the monoclonal antibody covalently coupled via free amine groups to the carboxymethylated dextrane membrane (CM5) on the sensor chip surface. […] The kinetic parameters for the interaction could be calculated using a 1:1 interaction Langmuir fitting model.
The purified monoclonal antibodies were immobilized in individual flow cells on a CM5 type sensor chip. Immobilizations were performed using a standard amine coupling procedure, aiming for an immobilization level of 1000 Resonance Units (RU). The antibodies were diluted to 5 μg/ml in 10 mM NaAc pH 5.0. […] Association (injection) was 3 min., followed by a 30 min. dissociation (wash) period. Flow rate was 30 μl/min. Experiments were performed at 25° C. Regeneration of the surface following each cycle, was accomplished by injection of 30 sec. pulse of 10 mM Glycin-HCl pH 1.8, at a 30 ul/min flow rate. Detection in all flow cells simultaneously. Flow cell No. 1 contained no immobilized antibody, and was used for subtraction of background and bulk. […] Data was inspected for mass-transport limitations prior to calculation of the kinetic parameters. Experiments were performed on Biacore 3000 and T100 instruments. Data was evaluated using Biaeval 4.1 and Biacore T100 evaluation software.
The target in assay [4] is T4, Peptide no. 61 (Figure 8A).
T4 construct: Ala-scan peptide on the array; also called Peptide no; K96A
T4 peptide: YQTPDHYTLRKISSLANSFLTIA
Put plainly: Ala-scan peptide array of hIL20 74-96 on cellulose; fluorescein-labelled antibody; fluorescence as OD.
Description: (§1) The screenings were done using fluorescence labelled antibodies. The labelling was done by gel-filtering the antibody stock against 1% NaHCO3, using NAP5 column (GE Healthcare according the manual from manufacturer. This was followed by adding 25 mole equivalents of 5(6)-carboxyfluorescein N-hydroxysuccinimide ester (Sigma, C1609) dissolved in DMSO. The coupling was allowed to continue for 2 hours followed by a gelfiltration against TRIS washing buffer (50 mM TRIS, pH=7.4, 0.15M NaCl, 0.1 M ArgHCl, 0.05% Tween 20) in order to removed uncoupled fluorescein.
(§2) Screening of arrays were done by adding 10 μl of antibody to 30 ml incubation buffer (0.5% BSA, 50 mM TRIS, pH=7.4, 0.15M NaCl, 0.1 M ArgHCl, 0.05% Tween 20). The sheets were incubated for 1-2 hours, followed by washing five times with washing buffer. […] The fluorescence intensity were measured and transformed into digits that were exported to Prism 5 (Graph Pad Software, USA) for further analysis.

For assay [5], the target named is T5, Peptide no. 86 (Figure 6A).
T5 construct: also called Peptide no
T5 peptide: NYQTPDHYTLRKISSLAN
The assay can be described thus: 18mer hIL20 peptide array on cellulose, 4 residue walk; fluorescein-labelled antibody; fluorescence as OD.
Description: as §1, §2

The target of assay [6] is T6, Peptide no. 87 (Figure 6A).
T6 construct: also called Peptide no
T6 peptide: PDHYTLRKISSLANSFLT
Described as above.
Description: as §1, §2

Assay [7] has as its target T7, Peptide no. 2 (Figures 7A, 7B) (N-terminus acylated).
T7 construct: peptide array on cellulose
T7 peptide: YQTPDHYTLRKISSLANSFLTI
The assay can be described thus: array of terminally truncated, acylated hIL20 peptides on cellulose; fluorescein-labelled antibody; fluorescence as OD.
Description: as §1, §2

The target of assay [8] is T8, Peptide no. 3 (Figures 7A, 7B) (N-terminus acylated).
T8 construct: peptide array on cellulose
T8 peptide: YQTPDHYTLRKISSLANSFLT
Described as above.
Description: as §1, §2

Assay [9] has as its target T9, Peptide no. 4 (Figures 7A, 7B) (N-terminus acylated).
T9 construct: peptide array on cellulose
T9 peptide: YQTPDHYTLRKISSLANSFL
The description is as above.
Description: as §1, §2

Assay [10] has as its target T10, Peptide no. 5 (Figures 7A, 7B) (also: N-terminus acylated).
T10 construct: peptide array on cellulose
T10 peptide: YQTPDHYTLRKISSLANSF
The description is as above.
Description: as §1, §2

Assay [11] deals with T11, Peptide no. 6 (Figures 7A, 7B) (also: N-terminus acylated).
T11 construct: peptide array on cellulose
T11 peptide: YQTPDHYTLRKISSLANS
The assay is described as above.
Description: as §1, §2

Assay [12] has as its target T12, Peptide no. 7 (Figures 7A, 7B) (also: N-terminus acylated).
T12 construct: peptide array on cellulose
T12 peptide: YQTPDHYTLRKISSLAN
The assay is described as above.
Description: as §1, §2

Assay [13] has as its target T13, Peptide no. 13 (Figures 7A, 7B) (N-terminus acylated).
T13 construct: peptide array on cellulose
T13 peptide: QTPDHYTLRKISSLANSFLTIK
The assay is described as above.
Description: as §1, §2

In assay [14] the target is T14, Peptide no. 14 (Figures 7A, 7B) (N-terminus acylated).
T14 construct: peptide array on cellulose
T14 peptide: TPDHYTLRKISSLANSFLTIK
The assay is described as above.
Description: as §1, §2

Assay [15] deals with T15, Peptide no. 15 (Figures 7A, 7B) (N-terminus acylated).
T15 construct: peptide array on cellulose
T15 peptide: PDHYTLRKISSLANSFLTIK
The description is as above.
Description: as §1, §2

The target in assay [16] is T16, Peptide no. 16 (Figures 7A, 7B) (also: N-terminus acylated).
T16 construct: peptide array on cellulose
T16 peptide: DHYTLRKISSLANSFLTIK
The assay is described as above.
Description: as §1, §2

Assay [17] deals with T17, Peptide no. 17 (Figures 7A, 7B) (also: N-terminus acylated).
T17 construct: peptide array on cellulose
T17 peptide: HYTLRKISSLANSFLTIK
The assay is described as above.
Description: as §1, §2

Assay [18] deals with T18, Peptide no. 18 (Figures 7A, 7B) (also: N-terminus acylated).
T18 construct: peptide array on cellulose
T18 peptide: YTLRKISSLANSFLTIK
The assay is described as above.
Description: as §1, §2

Assay [19] addresses T19, Peptide no. 1 (Figures 7A, 7B) (N-terminus acylated).
T19 construct: peptide array on cellulose
T19 peptide: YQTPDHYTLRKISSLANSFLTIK
The description is as above.
Description: as §1, §2

B1: human anti-hIL20 monoclonal antibody 15D2 (antibody, V domains shown)
VH: QVQLVQSGAEVKRPGASVKVSCKASGYTFTNDIIHWVRQAPGQRLEWMGWINAGYGNTQYSQNFQDRVSITRDTSASTAYMELISLRSEDTAVYYCAREPLWFGESSPHDYYGMDVWGQGTTVTVSS
VL: AIQLTQSPSSLSASVGDRVTITCRASQGISSALAWYQQKPGKAPKLLIYDASSLESGVPSRFSGSGSGTDFTLTISSLQPEDFATYYCQQFNSYPLTFGGGTKVEIKR
notes: also called 15D2-wt; 15D2 wild-type
On to B1, for which the “efficacy (percentage inhibition) of IL20-induced proliferation of BaF-3(hIL20R)” value (shortened to “efficacy (percentage inhibition)”) in assay [1] is roughly 100%. Besides, in the assay with cynomolgus IL20, the “efficacy (percentage inhibition)” value is roughly 100%. Also, the “efficacy (percentage inhibition)” value in the assay with murine IL20 was roughly 100%. In assay [2], the “IC50, inhibition of IL20 induced proliferation of BaF-3(hIL20R) at 1e-9M hIL20 (assay 1)” value worked out at 0.18 µM; the “IC50, inhibition of IL20 induced proliferation of BaF-3(hIL20R) at 1e-9M hIL20 (assay 2)” value turned out to be 0.42 µM; the “IC50, inhibition of IL20 induced proliferation of BaF-3(hIL20R) at 1e-9M hIL20 (assay 3)” value stood at 0.34 µM; the “IC50, inhibition of IL20 induced proliferation of BaF-3(hIL20R) at 1e-9M hIL20 (assay 6)” value was 0.12 µM. Also, the “IC50, inhibition of IL20 induced proliferation of BaF-3(hIL20R) at 1e-9M hIL20 (assay 7)” value in assay [2] was found to be 0.436 µM. Also, in [3], the Kd stood at 0.00055 µM, the koff came out at 0.00011 s⁻¹ and the kon came out at 190000 M⁻¹ s⁻¹.

B2: human anti-hIL20 monoclonal antibody 5B7 (antibody, human IgG4, V domains shown)
VH: QVQLVQSGAEVKRPGASVKVSCKASGYTFSSHIMHWVRQAPGQRLEWMGWINAGYGNTKYSQNFQDRVTITRDTSASTAYMELISLRSEDTAVYYCAREPLWFGELSPHDYYGMDVWGQGTTVTVSS
VL: AIQLTQSPSSLSASVGDRVTITCRASQGISSALAWYQQKPGKAPKLLIYDASSLESGVPSRFSGSGSGTDFTLTISSLQPEDFATYYCQQFNSYPLTFGGGTKVEIKR
notes: described as human IgG4; also called 5B7-wt
In the case of B2, the “IC50, inhibition of IL20 induced proliferation of BaF-3(hIL20R) at 1e-9M hIL20 (assay 1)” value in [2] was determined as 0.26 µM. Also, the “IC50, inhibition of IL20 induced proliferation of BaF-3(hIL20R) at 1e-9M hIL20 (assay 2)” value in assay [2] stood at 4.54 µM. For the same molecule, the “IC50, inhibition of IL20 induced proliferation of BaF-3(hIL20R) at 1e-9M hIL20 (assay 3)” value in assay [2] turned out to be 0.76 µM. The “IC50, inhibition of IL20 induced proliferation of BaF-3(hIL20R) at 1e-9M hIL20 (assay 6)” value in assay [2] turned out to be 0.2 µM. Besides, the binding result in assay [4], in assay [5], in assay [6], in assay [7], in [8] and in assay [9] was “binds” throughout. The binding result in assay [10], in assay [11], in [12], in assay [13], in [14] and in assay [15] was “binds” each time. The binding result is recorded as “binds” in assay [16], “binds” in assay [17], “no binding” in assay [18] and “binds” in assay [19]. For the same molecule, the Kd in assay [3] was 0.00075 µM. The koff in assay [3] was 0.0001 s⁻¹. Besides, the kon in [3] amounted to 140000 M⁻¹ s⁻¹.

A word on the Kd: it is the equilibrium constant for the complex coming apart. Broadly, the koff is the first-order rate constant of dissociation. The term kon denotes a measure of how fast the partners come together.
